Assay results published in patent publication US20230365711A1 (Hoffmann-La Roche, published 2023).

How the values were obtained:
[1] = target: T1, huNABA-avi-his (hybrid protein N-A1-B3-A2: N and A1 domains of human BGP, B3 domain of human CEA, A2 domain … (human, biotinylated at the avi tag (in vivo, co-transfected biotin ligase))); assay: Biacore on immobilized NABA-avi-his; Bivalent Affinity
T1 construct: also called NABA-avi-his reagent; biotinylated NABA
T1 chain: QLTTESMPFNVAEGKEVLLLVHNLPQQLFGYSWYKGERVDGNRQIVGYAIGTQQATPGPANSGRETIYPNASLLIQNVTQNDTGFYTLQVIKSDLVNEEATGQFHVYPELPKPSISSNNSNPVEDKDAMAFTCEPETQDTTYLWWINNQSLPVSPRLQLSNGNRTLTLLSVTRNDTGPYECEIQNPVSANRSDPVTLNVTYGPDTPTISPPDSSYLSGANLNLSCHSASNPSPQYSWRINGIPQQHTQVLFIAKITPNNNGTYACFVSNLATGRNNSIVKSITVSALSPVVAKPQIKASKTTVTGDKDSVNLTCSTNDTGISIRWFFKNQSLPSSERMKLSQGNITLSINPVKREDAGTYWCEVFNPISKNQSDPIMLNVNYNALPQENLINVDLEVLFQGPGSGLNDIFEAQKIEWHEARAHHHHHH

[2] = target: T1, huNABA-avi-his (hybrid protein …); assay: Proteon SPR, antibody analyte on biotinylated NABA (Neutravidin chip)
Excerpt: (§1) Shown in FIG. 22 are Proteon (Biacore) sensorgrams obtained for the binding of the CDR-H3 antibody variants to the CEA antigen-harbouring chimeric protein NABA. […] The affinity matured precursor clone 5HFF12 and the parental antibody CH7A were included for direct comparison. All antibodies tested in this assay had 2F1 as the light chain. […] The relative affinity of each, measured in the bivalent form, is as follows: 5HFF12>CH7A (Y98A/D99Y)>CH7A (Y98A)>CH7A>CH7A (E102Q)>CH7A (D99Y)>CH7A (D99H)>CH7A (A103T)>CH7A (V101F)>CH7A (W95Y).

[3] = target: T1, huNABA-avi-his (hybrid protein …); assay: Proteon SPR, antibody analyte on biotinylated NABA (Neutravidin chip); column Ka (M)
Excerpt: as §1

[4] = target: T1, huNABA-avi-his (hybrid protein …); assay: Biacore, Fab on immobilized NABA-avi-his; column Monovalent Affinity
[5] = target: T1, huNABA-avi-his (hybrid protein …); assay: Proteon SPR, antibody analyte on biotinylated NABA (Neutravidin chip)
[6] = target: T1, huNABA-avi-his (hybrid protein …); assay: Proteon SPR, antibody analyte on biotinylated NABA (Neutravidin chip); column Ka (M)

Row | Kd [1] [nM] | koff [1] [s⁻¹] | kon [1] [M⁻¹ s⁻¹] | Kd [2] [nM] | kon [3] [M⁻¹ s⁻¹] | Binder | other results
1 | – | – | – | 1.73 | 114000 | antibody with heavy chain CH7A (D99Y) and light chain 2F1 (antibody, V domains shown, Bivalent form) VH: QVQLVQSGSELKKPGASVKVSCKASGYTFTEFGMNWVRQAPGQGLEWMGWINTKTGEATYVEEFKGRFVFSLDTSVSTAYLQISSLKAEDTAVYYCARWDFYYYVEAMDYWGQGTTVTVSS VL: DIQMTQSPSSLSASVGDRVTITCKASAAVGTYVAWYQQKPGKAPKLLIYSASYRKRGVPSRFSGSGSGTDFTLTISSLQPEDFATYYCHQYYTYPLFTFGQGTKLEIKR | –
2 | 0.55 | 0.000136 | 246000 | – | – | H4E9 x 3A1 (antibody, V domains shown, bivalent form) VH: QVQLVQSGSELKKPGASVKVSCKASGYTFTEFGMNWVRQAPGQGLEWMGWINTKTGEATYIEEFKGRFVFSLDTSVSTAYLQISSLKAEDTAVYYCARWDFYDYVEAMDYWGQGTTVTVSS VL: DIQMTQSPSSLSASVGDRVTITCKASANVGNNVAWYQQKPGKAPKLLIYLASNRSGGVPSRFSGSGSGTDFTLTISSLQPEDFATYYCHQYYTYPLFTFGQGTKLEIKR | –
3 | – | – | – | 2.25 | 86500 | antibody with heavy chain CH7A (D99H) and light chain 2F1 (antibody, V domains shown, Bivalent form) VH: QVQLVQSGSELKKPGASVKVSCKASGYTFTEFGMNWVRQAPGQGLEWMGWINTKTGEATYVEEFKGRFVFSLDTSVSTAYLQISSLKAEDTAVYYCARWDFYHYVEAMDYWGQGTTVTVSS VL: DIQMTQSPSSLSASVGDRVTITCKASAAVGTYVAWYQQKPGKAPKLLIYSASYRKRGVPSRFSGSGSGTDFTLTISSLQPEDFATYYCHQYYTYPLFTFGQGTKLEIKR | –
4 | – | – | – | 2.87 | 25100 | antibody with heavy chain CH7A (A103T) and light chain 2F1 (antibody, V domains shown, Bivalent form) VH: QVQLVQSGSELKKPGASVKVSCKASGYTFTEFGMNWVRQAPGQGLEWMGWINTKTGEATYVEEFKGRFVFSLDTSVSTAYLQISSLKAEDTAVYYCARWDFYDYVETMDYWGQGTTVTVSS VL: DIQMTQSPSSLSASVGDRVTITCKASAAVGTYVAWYQQKPGKAPKLLIYSASYRKRGVPSRFSGSGSGTDFTLTISSLQPEDFATYYCHQYYTYPLFTFGQGTKLEIKR | –
5 | – | – | – | 3.18 | 59400 | antibody with heavy chain CH7A (V101F) and light chain 2F1 (antibody, V domains shown, Bivalent form) VH: QVQLVQSGSELKKPGASVKVSCKASGYTFTEFGMNWVRQAPGQGLEWMGWINTKTGEATYVEEFKGRFVFSLDTSVSTAYLQISSLKAEDTAVYYCARWDFYDYFEAMDYWGQGTTVTVSS VL: DIQMTQSPSSLSASVGDRVTITCKASAAVGTYVAWYQQKPGKAPKLLIYSASYRKRGVPSRFSGSGSGTDFTLTISSLQPEDFATYYCHQYYTYPLFTFGQGTKLEIKR | –
6 | – | – | – | 1.63 | 198000 | antibody with heavy chain CH7A (E102Q) and light chain 2F1 (antibody, V domains shown, Bivalent form) VH: QVQLVQSGSELKKPGASVKVSCKASGYTFTEFGMNWVRQAPGQGLEWMGWINTKTGEATYVEEFKGRFVFSLDTSVSTAYLQISSLKAEDTAVYYCARWDFYDYVQAMDYWGQGTTVTVSS VL: DIQMTQSPSSLSASVGDRVTITCKASAAVGTYVAWYQQKPGKAPKLLIYSASYRKRGVPSRFSGSGSGTDFTLTISSLQPEDFATYYCHQYYTYPLFTFGQGTKLEIKR | –

More lines, now with the values behind:

Row | Binder | Kd [1] [nM] | koff [1] [s⁻¹] | kon [1] [M⁻¹ s⁻¹] | Kd [2] [nM] | kon [3] [M⁻¹ s⁻¹] | other results
7 | H4E9 x 2F1 (bivalent) (antibody, V domains shown, bivalent form of the clone) VH: QVQLVQSGSELKKPGASVKVSCKASGYTFTEFGMNWVRQAPGQGLEWMGWINTKTGEATYIEEFKGRFVFSLDTSVSTAYLQISSLKAEDTAVYYCARWDFYDYVEAMDYWGQGTTVTVSS VL: DIQMTQSPSSLSASVGDRVTITCKASAAVGTYVAWYQQKPGKAPKLLIYSASYRKRGVPSRFSGSGSGTDFTLTISSLQPEDFATYYCHQYYTYPLFTFGQGTKLEIKR | 0.452 | 0.000191 | 423000 | – | – | –
8 | 1C8 x 3A1 (antibody, V domains shown, bivalent form) VH: QVQLVQSGSELKKPGASVKVSCKASGYTFTEFGMNWVRQAPGQGLEWMGWINTKTGEATYVEEFKGRFVFSLDTSVSTAYLQISSLKAEDTAVYYCARWDFYHYVEAMDYWGQGTTVTVSS VL: DIQMTQSPSSLSASVGDRVTITCKASANVGNNVAWYQQKPGKAPKLLIYLASNRSGGVPSRFSGSGSGTDFTLTISSLQPEDFATYYCHQYYTYPLFTFGQGTKLEIK | 0.888 | 0.000257 | 289000 | – | – | –
9 | 1C8 x 2F1 (Fab, V domains shown, also called 1C8 x 2F1 hc/lc, monovalent; copies: 1 + 1) VH: QVQLVQSGSELKKPGASVKVSCKASGYTFTEFGMNWVRQAPGQGLEWMGWINTKTGEATYVEEFKGRFVFSLDTSVSTAYLQISSLKAEDTAVYYCARWDFYHYVEAMDYWGQGTTVTVSS VL: DIQMTQSPSSLSASVGDRVTITCKASAAVGTYVAWYQQKPGKAPKLLIYSASYRKRGVPSRFSGSGSGTDFTLTISSLQPEDFATYYCHQYYTYPLFTFGQGTKLEIK | – | – | – | – | – | Kd [4]: 128 nM; koff [4]: 0.0087 s⁻¹; kon [4]: 68100 M⁻¹ s⁻¹
10 | H3 Full (5) 19 x 2F1 (bivalent) (antibody, V domains shown, bivalent form of the clone; copies: 2 + 2) VH: QVQLVQSGSELKKPGASVKVSCKASGYTFTEFGMSWVRQAPGQGLEWMGWINTKTGEATYVEEFKGRFVFSLDTSVSTAYLQISSLKAEDTAVYYCARWDAFEYVKALDYWGQGTTVTVSS VL: DIQMTQSPSSLSASVGDRVTITCKASAAVGTYVAWYQQKPGKAPKLLIYSASYRKRGVPSRFSGSGSGTDFTLTISSLQPEDFATYYCHQYYTYPLFTFGQGTKLEIK | 0.16 | 0.000284 | 1.76e+06 | – | – | –
11 | anti-CEA antibody with heavy chain CH1A1E and light chain 2F1 (antibody, V domains shown) VH: QVQLVQSGAEVKKPGASVKVSCKASGYTFTEFGMNWVRQAPGQGLEWMGWINTKTGEATYVEEFKGRFTMTTDTSTSTAYMELRSLRSDDTAVYYCARWDFYDYVEAMDYWGQGTTVTVSS VL: DIQMTQSPSSLSASVGDRVTITCKASAAVGTYVAWYQQKPGKAPKLLIYSASYRKRGVPSRFSGSGSGTDFTLTISSLQPEDFATYYCHQYYTYPLFTFGQGTKLEIKR | – | – | – | – | – | Kd [5]: 20 nM; kon [6]: 21100 M⁻¹ s⁻¹
12 | anti-CEA antibody with heavy chain CH1A1G and light chain 2F1 (antibody, V domains shown) VH: QVQLVQSGAEVKKPGASVKVSCKASGYTFTEFGMNWVRQAPGQGLEWMGWINTKTGEATYVEEFKGRVTMTTDTSTSTAYMEIRSLRSDDTAVYYCARWDFYDYVEAMDYWGQGTTVTVSS VL: DIQMTQSPSSLSASVGDRVTITCKASAAVGTYVAWYQQKPGKAPKLLIYSASYRKRGVPSRFSGSGSGTDFTLTISSLQPEDFATYYCHQYYTYPLFTFGQGTKLEIKR | – | – | – | – | – | Kd [5]: 6.1 nM; kon [6]: 73000 M⁻¹ s⁻¹
13 | 1C8 x 2F1 (bivalent) (antibody, V domains shown, bivalent form of the clone; copies: 2 + 2) VH: QVQLVQSGSELKKPGASVKVSCKASGYTFTEFGMNWVRQAPGQGLEWMGWINTKTGEATYVEEFKGRFVFSLDTSVSTAYLQISSLKAEDTAVYYCARWDFYHYVEAMDYWGQGTTVTVSS VL: DIQMTQSPSSLSASVGDRVTITCKASAAVGTYVAWYQQKPGKAPKLLIYSASYRKRGVPSRFSGSGSGTDFTLTISSLQPEDFATYYCHQYYTYPLFTFGQGTKLEIK | 0.66 | 0.000636 | 968000 | – | – | –
14 | H3 Full (5) 8 x 2F1 (antibody, V domains shown, bivalent form; copies: 2 + 2) VH: QVQLVQSGSELKKPGASVKVSCKASGYTFTEFGMNWVRQAPGQGLEWMGWINTKTGEATYVEEFKGRFVFSLDTSVSTAYLQISSLKAEDTAVYYCARWDFFEYFKTMDYWGQGTTVTVSS VL: DIQMTQSPSSLSASVGDRVTITCKASAAVGTYVAWYQQKPGKAPKLLIYSASYRKRGVPSRFSGSGSGTDFTLTISSLQPEDFATYYCHQYYTYPLFTFGQGTKLEIK | 0.28 | 0.000271 | 993000 | – | – | –
15 | 3A1 (bivalent) (antibody, V domains shown, bivalent form of the clone) VH: QVQLVQSGSELKKPGASVKVSCKASGYTFTEFGMNWVRQAPGQGLEWMGWINTKTGEATYVEEFKGRFVFSLDTSVSTAYLQISSLKAEDTAVYYCARWDFYDYVEAMDYWGQGTTVTVSS VL: DIQMTQSPSSLSASVGDRVTITCKASANVGNNVAWYQQKPGKAPKLLIYLASNRSGGVPSRFSGSGSGTDFTLTISSLQPEDFATYYCHQYYTYPLFTFGQGTKLEIK | 1.5 | 0.000364 | 242000 | – | – | –
